The text below walks through data of PMC10202398, “Nitrite reductase activity in F420-dependent sulphite reductase (Fsr) from Methanocaldococcus jannaschii” (Access Microbiology, 2023).

Data set [1] deals with T1, MjFsrI (F420-dependent sulphite reductase, Fsr) (Methanocaldococcus jannaschii, UniProt Q58280).
T1 construct: native, purified from sulphite-grown Mj cells; untagged
T1 sequence (Q58280 1-620): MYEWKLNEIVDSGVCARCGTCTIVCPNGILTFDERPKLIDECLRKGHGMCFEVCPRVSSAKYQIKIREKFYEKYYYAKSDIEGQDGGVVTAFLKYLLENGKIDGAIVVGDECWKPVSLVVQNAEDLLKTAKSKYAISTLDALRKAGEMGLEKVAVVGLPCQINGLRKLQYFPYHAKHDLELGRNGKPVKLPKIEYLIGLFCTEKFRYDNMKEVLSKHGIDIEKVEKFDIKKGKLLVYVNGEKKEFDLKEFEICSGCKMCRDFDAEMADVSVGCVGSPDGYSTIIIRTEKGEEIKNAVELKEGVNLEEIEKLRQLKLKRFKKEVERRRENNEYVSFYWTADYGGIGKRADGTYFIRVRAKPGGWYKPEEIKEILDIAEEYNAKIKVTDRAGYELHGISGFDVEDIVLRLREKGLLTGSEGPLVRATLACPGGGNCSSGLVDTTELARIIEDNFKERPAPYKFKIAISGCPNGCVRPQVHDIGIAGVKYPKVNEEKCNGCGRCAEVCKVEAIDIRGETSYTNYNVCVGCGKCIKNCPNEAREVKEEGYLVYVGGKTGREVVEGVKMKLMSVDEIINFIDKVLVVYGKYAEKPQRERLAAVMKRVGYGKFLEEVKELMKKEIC
The data set can be described thus: non-degradative extraction from purified protein, reversed-phase HPLC. Conditions: native co-purified flavin, 25 mM potassium phosphate pH 7. In kind it is binding.

Substrate in data set [2]: NO
The data set can be described thus: purified protein. The format is biochemical, Methanocaldococcus jannaschii. As to conditions: 40 µM F420H2, 25-600 µM hydroxylamine, 100 mM potassium phosphate pH 7.

Substrate in data set [3]: O=NO
Description: purified protein. Conditions: 40 µM F420H2, 5-150 µM nitrite, 100 mM potassium phosphate pH 7. In kind it is biochemical, Methanocaldococcus jannaschii.

With `Cc1cc2nc3c(=O)[nH]c(=O)nc-3n(C[C@H](O)[C@H](O)[C@H](O)COP(=O)(O)OP(=O)(O)OC[C@H]3O[C@@H](n4cnc5c(N)ncnc54)[C@H](O)[C@@H]3O)c2cc1C` [FAD], the “non-degradative extraction from purified protein, reversed-phase HPLC” value in data set [1] is reported as “Reversed-phase HPLC identified the flavin extracted from MjFsrI as FAD”.

B1: MjFsrI (F420-dependent sulphite reductase, Fsr) (Methanocaldococcus jannaschii DSM 2661) (protein)
chain: MYEWKLNEIVDSGVCARCGTCTIVCPNGILTFDERPKLIDECLRKGHGMCFEVCPRVSSAKYQIKIREKFYEKYYYAKSDIEGQDGGVVTAFLKYLLENGKIDGAIVVGDECWKPVSLVVQNAEDLLKTAKSKYAISTLDALRKAGEMGLEKVAVVGLPCQINGLRKLQYFPYHAKHDLELGRNGKPVKLPKIEYLIGLFCTEKFRYDNMKEVLSKHGIDIEKVEKFDIKKGKLLVYVNGEKKEFDLKEFEICSGCKMCRDFDAEMADVSVGCVGSPDGYSTIIIRTEKGEEIKNAVELKEGVNLEEIEKLRQLKLKRFKKEVERRRENNEYVSFYWTADYGGIGKRADGTYFIRVRAKPGGWYKPEEIKEILDIAEEYNAKIKVTDRAGYELHGISGFDVEDIVLRLREKGLLTGSEGPLVRATLACPGGGNCSSGLVDTTELARIIEDNFKERPAPYKFKIAISGCPNGCVRPQVHDIGIAGVKYPKVNEEKCNGCGRCAEVCKVEAIDIRGETSYTNYNVCVGCGKCIKNCPNEAREVKEEGYLVYVGGKTGREVVEGVKMKLMSVDEIINFIDKVLVVYGKYAEKPQRERLAAVMKRVGYGKFLEEVKELMKKEIC
notes: native, purified from sulphite-grown Mj cells; untagged
For the molecule B1, the Km in data set [2] came out at 112.4 ± 14.4 µM; in data set [3] it was 8.9 ± 0.9 µM.

What is called Km is the substrate concentration at which the rate is half of its maximum.
